Values belong to the molecule of their own block, whether it stands above or below them.
Legend:
Format in all cases: cell-based
[1] = molecular target: T1, SSTR4 (Homo sapiens, UniProt P31391); experiment: PathHunter β-arrestin2-EA / GPCR-ED enzyme fragment complementation, SSTR4-ED fusion; settings: saturating ligand
T1 construct: The entire GPCR coding regions were cloned downstream of the CMV promoter and upstream of the ED; expressed in transfected cells; host or cells: HEK293 or CHOK1 cells, retroviral infection (pLNCX2)
Text: The cells used were HEK293 and CHOK1 cells. […] The viral plasmid was the PLNCX2 vector from Clontech. The plasmid includes sufficient retroviral sequences to enable viral production in the appropriate packaging cell lines. The plasmid also includes the neomycin antibiotic resistance gene and a CMV promoter that is used to drive expression of the target ED fusion. […] The ED is fused at the intracellular terminus, i.e., C-terminus of the proteins.
Preparation of Detection Reagents—The detection reagents must be prepared as a working solution prior to use, and once prepared are stable for at least 24 hours at room temperature with no impact on assay performance. The detection reagents consist of the substrate and co-factors for chemiluminescence signal detection, as well as the reagents necessary for selective cell permeabilization. Working solution is prepared by combining PathHunter™ Cell Assay Buffer (DiscoveRx, Inc., Fremont, Calif.), Galacton Star® and Emerald II® reagent to 25 μl of cells+compound. reagents (ABI, Bedford, Mass.) at a ratio of 19:1:5.
The fourth column indicates the fold induction for each of the constructs, where saturating conditions of the ligand were employed.

[2] = molecular target: T2, CHRM2 (Homo sapiens, UniProt P08172); experiment: PathHunter β-arrestin2-EA / GPCR-ED enzyme fragment complementation, CHRM2-ED fusion; settings: saturating ligand
T2 construct: The entire GPCR coding regions were cloned downstream of the CMV promoter and upstream of the ED; expressed in transfected cells; host or cells: HEK293 or CHOK1 cells, retroviral infection (pLNCX2)
Text: (§1) The following are the directions for performing the determinations of the response to inducing agents and comparing the prior art ED (pK1) to an ED of the subject invention (pK2):
(§2) The cells used were HEK293 and CHOK1 cells. Following substantially the procedures described in U.S. patent application Ser. No. 10/229,247, filed Aug. 27, 2002, and U.S. patent application Ser. No. 11/132,764 (Publication no. 2005/0287522), filed May 18, 2005, whose disclosures are specifically incorporated by reference, each of the cell lines was infected with retroviral constructs. The viral plasmid was the PLNCX2 vector from Clontech. The plasmid includes sufficient retroviral sequences to enable viral production in the appropriate packaging cell lines. The plasmid also includes the neomycin antibiotic resistance gene and a CMV promoter that is used to drive expression of the target ED fusion. […] The ED is fused at the intracellular terminus, i.e., C-terminus of the proteins.
(§3) Preparation of Detection Reagents—The detection reagents must be prepared as a working solution prior to use, and once prepared are stable for at least 24 hours at room temperature with no impact on assay performance. The detection reagents consist of the substrate and co-factors for chemiluminescence signal detection, as well as the reagents necessary for selective cell permeabilization. […]

[3] = molecular target: T3, CRTH2 (Homo sapiens, UniProt Q9Y5Y4); experiment: PathHunter β-arrestin2-EA / GPCR-ED enzyme fragment complementation, CRTH2-ED fusion; settings: saturating ligand
T3 construct: The entire GPCR coding regions were cloned downstream of the CMV promoter and upstream of the ED; expressed in transfected cells; host or cells: HEK293 or CHOK1 cells, retroviral infection (pLNCX2)
Text: as §1, §2, §3

[4] = molecular target: T4, P2RY6 (Homo sapiens, UniProt Q15077); experiment: PathHunter β-arrestin2-EA / GPCR-ED enzyme fragment complementation, P2RY6-ED fusion; settings: saturating ligand
T4 construct: The entire GPCR coding regions were cloned downstream of the CMV promoter and upstream of the ED; expressed in transfected cells; host or cells: HEK293 or CHOK1 cells, retroviral infection (pLNCX2)
Text: as §1, §2, §3

[5] = molecular target: T5, CCR6 (Homo sapiens, UniProt P51684); experiment: PathHunter β-arrestin2-EA / GPCR-ED enzyme fragment complementation, CCR6-ED fusion; settings: saturating ligand
T5 construct: The entire GPCR coding regions were cloned downstream of the CMV promoter and upstream of the ED; expressed in transfected cells; host or cells: HEK293 or CHOK1 cells, retroviral infection (pLNCX2)
Text: as §1, §2, §3

[6] = molecular target: T6, PTHR2 (Homo sapiens, UniProt P49190); experiment: PathHunter β-arrestin2-EA / GPCR-ED enzyme fragment complementation, PTHR2-ED fusion; settings: PTHR2 fused to PK2 ED; saturating ligand
T6 construct: The entire GPCR coding regions were cloned downstream of the CMV promoter and upstream of the ED; expressed in transfected cells; host or cells: HEK293 or CHOK1 cells, retroviral infection (pLNCX2)
Text: as §1, §2
Preparation of Detection Reagents—The detection reagents must be prepared as a working solution prior to use, and once prepared are stable for at least 24 hours at room temperature with no impact on assay performance. The detection reagents consist of the substrate and co-factors for chemiluminescence signal detection, as well as the reagents necessary for selective cell permeabilization. Working solution is prepared by combining PathHunter™ Cell Assay Buffer (DiscoveRx, Inc., Fremont, Calif.), Galacton Star® and Emerald II® reagent […]. reagents (ABI, Bedford, Mass.) at a ratio of 19:1:5. Sufficient reagent is provided in each kit to perform the indicated number of assays in a 384-well, full-volume microplate assuming an addition of 12 μl of detection reagent per well or in a 96-well, full-volume microplate assuming an addition of 50 μl of detection reagent per well. […]

[7] = molecular target: T7, SALPR (Homo sapiens, UniProt Q9NSD7); experiment: PathHunter β-arrestin2-EA / GPCR-ED enzyme fragment complementation, SALPR-ED fusion; settings: saturating ligand
T7 construct: The entire GPCR coding regions were cloned downstream of the CMV promoter and upstream of the ED; expressed in transfected cells; host or cells: HEK293 or CHOK1 cells, retroviral infection (pLNCX2)
Text: as §1, §2, §3

[8] = molecular target: T8, CCR4 (Homo sapiens, UniProt P51679); experiment: PathHunter β-arrestin2-EA / GPCR-ED enzyme fragment complementation, CCR4-ED fusion; settings: saturating ligand
T8 construct: The entire GPCR coding regions were cloned downstream of the CMV promoter and upstream of the ED; expressed in transfected cells; host or cells: HEK293 or CHOK1 cells, retroviral infection (pLNCX2)
Text: as §1, §2, §3

T6 sequence (P49190 25-550, species assumed): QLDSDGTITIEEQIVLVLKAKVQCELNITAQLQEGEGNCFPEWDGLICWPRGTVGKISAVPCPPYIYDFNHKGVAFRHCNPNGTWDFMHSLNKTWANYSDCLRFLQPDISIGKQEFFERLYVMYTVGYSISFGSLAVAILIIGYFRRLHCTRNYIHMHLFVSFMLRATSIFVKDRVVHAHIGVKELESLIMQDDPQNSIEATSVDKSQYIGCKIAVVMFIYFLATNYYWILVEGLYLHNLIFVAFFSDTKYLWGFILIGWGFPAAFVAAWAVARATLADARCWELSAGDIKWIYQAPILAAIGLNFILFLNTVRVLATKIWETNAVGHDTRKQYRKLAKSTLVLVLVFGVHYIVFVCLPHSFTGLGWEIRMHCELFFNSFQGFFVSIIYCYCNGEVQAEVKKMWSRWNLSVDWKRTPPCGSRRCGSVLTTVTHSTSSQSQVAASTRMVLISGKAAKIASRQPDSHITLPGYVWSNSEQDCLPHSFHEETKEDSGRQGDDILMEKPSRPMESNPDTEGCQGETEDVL
T6 sequence (P32121 whole entry partner, species assumed, the tested form may be a part): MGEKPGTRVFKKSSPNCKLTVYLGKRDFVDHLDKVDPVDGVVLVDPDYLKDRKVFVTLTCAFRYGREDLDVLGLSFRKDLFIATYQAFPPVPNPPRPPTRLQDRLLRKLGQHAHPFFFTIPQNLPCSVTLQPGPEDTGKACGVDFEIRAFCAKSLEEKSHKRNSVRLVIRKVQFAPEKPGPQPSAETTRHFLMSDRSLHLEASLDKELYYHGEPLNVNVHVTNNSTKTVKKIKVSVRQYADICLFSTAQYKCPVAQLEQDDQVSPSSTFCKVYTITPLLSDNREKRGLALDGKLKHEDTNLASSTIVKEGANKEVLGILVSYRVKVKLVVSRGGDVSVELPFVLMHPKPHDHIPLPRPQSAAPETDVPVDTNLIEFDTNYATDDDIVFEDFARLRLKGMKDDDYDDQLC
T8 sequence (P51679 whole entry, the tested form may be a part): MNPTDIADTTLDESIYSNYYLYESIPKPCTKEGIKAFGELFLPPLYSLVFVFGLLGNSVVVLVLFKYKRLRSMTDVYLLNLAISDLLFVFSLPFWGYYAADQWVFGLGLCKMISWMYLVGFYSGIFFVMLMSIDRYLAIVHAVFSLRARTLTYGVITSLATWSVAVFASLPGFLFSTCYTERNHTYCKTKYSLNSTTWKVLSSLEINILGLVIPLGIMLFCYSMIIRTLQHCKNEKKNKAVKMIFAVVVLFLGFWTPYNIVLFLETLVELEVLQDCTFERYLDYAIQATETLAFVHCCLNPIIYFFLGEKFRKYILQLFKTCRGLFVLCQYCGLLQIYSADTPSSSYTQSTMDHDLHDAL
T8 sequence (P32121 whole entry partner, the tested form may be a part): as the sequence (P32121 whole entry partner, species assumed, the tested form may be a part) above
T2 sequence (P08172 whole entry, species assumed, the tested form may be a part): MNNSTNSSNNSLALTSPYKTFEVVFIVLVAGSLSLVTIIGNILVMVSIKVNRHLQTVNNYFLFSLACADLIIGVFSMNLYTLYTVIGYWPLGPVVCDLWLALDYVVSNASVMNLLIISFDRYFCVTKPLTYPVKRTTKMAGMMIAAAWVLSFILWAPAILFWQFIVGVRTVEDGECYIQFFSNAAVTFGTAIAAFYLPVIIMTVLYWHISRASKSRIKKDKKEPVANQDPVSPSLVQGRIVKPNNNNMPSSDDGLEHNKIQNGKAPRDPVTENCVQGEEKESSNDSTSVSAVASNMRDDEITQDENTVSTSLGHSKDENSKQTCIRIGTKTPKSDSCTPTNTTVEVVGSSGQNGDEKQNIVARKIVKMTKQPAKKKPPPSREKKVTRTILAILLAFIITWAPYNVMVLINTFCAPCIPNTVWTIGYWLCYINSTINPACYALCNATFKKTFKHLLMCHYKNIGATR
T2 sequence (P32121 whole entry partner, species assumed, the tested form may be a part): as the sequence (P32121 whole entry partner, species assumed, the tested form may be a part) above
T7 sequence (Q9NSD7 whole entry, species assumed, the tested form may be a part): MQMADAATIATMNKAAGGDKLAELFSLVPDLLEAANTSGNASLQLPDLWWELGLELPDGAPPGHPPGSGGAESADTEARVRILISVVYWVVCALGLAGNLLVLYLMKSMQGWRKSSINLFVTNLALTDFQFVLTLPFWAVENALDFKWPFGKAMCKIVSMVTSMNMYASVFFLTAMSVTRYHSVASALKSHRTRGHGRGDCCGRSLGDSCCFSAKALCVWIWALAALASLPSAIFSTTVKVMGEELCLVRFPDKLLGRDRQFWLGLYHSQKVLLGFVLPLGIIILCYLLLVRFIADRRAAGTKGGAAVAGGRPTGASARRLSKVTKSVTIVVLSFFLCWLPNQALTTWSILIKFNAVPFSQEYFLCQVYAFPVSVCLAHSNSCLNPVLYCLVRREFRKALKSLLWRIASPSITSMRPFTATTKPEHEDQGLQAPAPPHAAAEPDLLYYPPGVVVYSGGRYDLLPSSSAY
T7 sequence (P32121 whole entry partner, species assumed, the tested form may be a part): as the sequence (P32121 whole entry partner, species assumed, the tested form may be a part) above
T4 sequence (Q15077 whole entry, species assumed, the tested form may be a part): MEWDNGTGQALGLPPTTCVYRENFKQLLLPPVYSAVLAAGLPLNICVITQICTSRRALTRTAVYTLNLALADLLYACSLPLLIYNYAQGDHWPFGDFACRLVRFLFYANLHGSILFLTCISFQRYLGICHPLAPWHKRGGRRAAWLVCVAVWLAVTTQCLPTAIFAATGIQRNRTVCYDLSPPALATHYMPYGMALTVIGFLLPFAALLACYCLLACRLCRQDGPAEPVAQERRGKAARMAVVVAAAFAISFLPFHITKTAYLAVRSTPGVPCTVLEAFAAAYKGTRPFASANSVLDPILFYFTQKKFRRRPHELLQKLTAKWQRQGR
T4 sequence (P32121 whole entry partner, species assumed, the tested form may be a part): as the sequence (P32121 whole entry partner, species assumed, the tested form may be a part) above
T3 sequence (Q9Y5Y4 whole entry, species assumed, the tested form may be a part): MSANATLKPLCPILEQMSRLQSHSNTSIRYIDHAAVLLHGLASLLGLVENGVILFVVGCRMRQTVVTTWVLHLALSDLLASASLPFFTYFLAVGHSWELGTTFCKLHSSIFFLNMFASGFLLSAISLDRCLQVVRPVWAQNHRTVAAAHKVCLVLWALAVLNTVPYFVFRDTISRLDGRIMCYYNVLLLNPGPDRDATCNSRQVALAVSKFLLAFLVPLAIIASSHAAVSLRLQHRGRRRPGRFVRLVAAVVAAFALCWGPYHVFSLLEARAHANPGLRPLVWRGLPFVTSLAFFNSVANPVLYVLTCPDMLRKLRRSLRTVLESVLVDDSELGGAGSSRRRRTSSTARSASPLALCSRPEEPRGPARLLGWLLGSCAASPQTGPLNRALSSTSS
T3 sequence (P32121 whole entry partner, species assumed, the tested form may be a part): as the sequence (P32121 whole entry partner, species assumed, the tested form may be a part) above
T5 sequence (P51684 whole entry, the tested form may be a part): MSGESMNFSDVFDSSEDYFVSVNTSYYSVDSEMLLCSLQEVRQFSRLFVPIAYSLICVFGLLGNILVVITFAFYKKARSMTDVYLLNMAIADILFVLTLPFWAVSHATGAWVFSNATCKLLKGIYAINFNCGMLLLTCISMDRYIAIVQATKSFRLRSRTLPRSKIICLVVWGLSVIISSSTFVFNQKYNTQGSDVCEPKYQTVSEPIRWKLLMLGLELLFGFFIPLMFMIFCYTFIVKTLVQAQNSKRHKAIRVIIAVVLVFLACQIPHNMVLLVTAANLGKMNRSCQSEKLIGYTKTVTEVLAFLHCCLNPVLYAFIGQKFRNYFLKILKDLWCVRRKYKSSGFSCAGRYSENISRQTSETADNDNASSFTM
T5 sequence (P32121 whole entry partner, the tested form may be a part): as the sequence (P32121 whole entry partner, species assumed, the tested form may be a part) above
T1 sequence (P31391 whole entry, species assumed, the tested form may be a part): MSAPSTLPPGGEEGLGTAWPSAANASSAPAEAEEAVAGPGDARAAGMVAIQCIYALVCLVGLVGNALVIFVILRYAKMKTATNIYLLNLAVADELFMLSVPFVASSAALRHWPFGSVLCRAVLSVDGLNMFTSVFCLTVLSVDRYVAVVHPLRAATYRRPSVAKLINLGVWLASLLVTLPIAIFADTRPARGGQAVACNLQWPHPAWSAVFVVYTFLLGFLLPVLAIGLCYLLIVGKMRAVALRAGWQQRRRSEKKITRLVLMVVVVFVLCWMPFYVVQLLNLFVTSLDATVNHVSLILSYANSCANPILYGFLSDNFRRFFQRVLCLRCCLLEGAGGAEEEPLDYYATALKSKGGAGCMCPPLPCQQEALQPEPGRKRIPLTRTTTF
T1 sequence (P32121 whole entry partner, species assumed, the tested form may be a part): as the sequence (P32121 whole entry partner, species assumed, the tested form may be a part) above

Molecule: COC(=O)[C@H](CCCN=C(N)N)NC(=O)CCCc1c(-c2ccccc2)[nH]c2c(F)cc(F)cc12 [L803,087]
Fold induct. ([1]; SSTR4 fused to PK1 ED): 1.8 fold | Fold induct. ([1]; SSTR4 fused to PK2 ED): 2.1 fold

Molecule: C[N+](C)(C)CC#CCN1CCCC1=O [Oxotremorine M]
Fold induct. ([2]; CHRM2 fused to PK2 ED): 6.1 fold

Molecule: O=C1CCCN1CC#CCN1CCCC1 [Oxotremorine]
Fold induct. ([2]; CHRM2 fused to PK1 ED): 1.6 fold

Molecule: CCCCC[C@H](O)/C=C/[C@H]1C(=O)C[C@H](O)[C@@H]1C/C=C\CCCC(=O)O [Prostaglandin D2]
Fold induct. ([3]; CRTH2 fused to PK1 ED): none | Fold induct. ([3]; CRTH2 fused to PK2 ED): 2.6 fold

Fold induct. ([4]; P2RY6 fused to PK1 ED): 1.3 fold | Fold induct. ([4]; P2RY6 fused to PK2 ED): 1.9 fold
Molecule: O=c1ccn([C@@H]2O[C@H](COP(=O)(O)OP(=O)(O)O)[C@@H](O)[C@H]2O)c(=O)[nH]1 [UDP]

Fold induct. ([5]; CCR6 fused to PK1 ED): 1.4 fold | Fold induct. ([5]; CCR6 fused to PK2 ED): 6.5 fold
Molecule: CCL20

Fold induct. [6]: 72.9 fold
Molecule: PTH (1-34)

Fold induct. [6]: none
Molecule: PTHRP

Molecule: TIP39
Fold induct. [6]: 2.8 fold

Fold induct. ([7]; SALPR fused to PK1 ED): none | Fold induct. ([7]; SALPR fused to PK2 ED): 1.8 fold
B1: Relaxin-3 (protein)
chain: RAAPYGVRLCGREFIRAVIFTCGGSRWRRSDILAHEAMGDTFPDADADEDSLAGELDEAMGSSEWLALTKSPQAFYRGRPSWQGTPGVLRGSRDVLAGLSSSCCKWGCSKSEISSLC
notes: ligand employed for SALPR

Fold induct. ([8]; CCR4 fused to PK1 ED): 18.9 fold | Fold induct. ([8]; CCR4 fused to PK2 ED): 3 fold
B2: CCL22 (protein)
chain: GPYGANMEDSVCCRDYVRYRLPLRVVKHFYWTSDSCPRPGVVLLTFRDKEICADPRVPWVKMILNKLSQ
notes: ligand employed for CCR4

Source: patent US8101373B2, “β-galactosidase donor fragments” (Discoverx Corporation, priority 2007, dated 2012)
